Experimental data from publication PMC5594927.

Key:
[1] = target: T1, AtGPA1, Arabidopsis Gα subunit, His-tagged (Arabidopsis thaliana) (UniProt P18064)
T1 sequence: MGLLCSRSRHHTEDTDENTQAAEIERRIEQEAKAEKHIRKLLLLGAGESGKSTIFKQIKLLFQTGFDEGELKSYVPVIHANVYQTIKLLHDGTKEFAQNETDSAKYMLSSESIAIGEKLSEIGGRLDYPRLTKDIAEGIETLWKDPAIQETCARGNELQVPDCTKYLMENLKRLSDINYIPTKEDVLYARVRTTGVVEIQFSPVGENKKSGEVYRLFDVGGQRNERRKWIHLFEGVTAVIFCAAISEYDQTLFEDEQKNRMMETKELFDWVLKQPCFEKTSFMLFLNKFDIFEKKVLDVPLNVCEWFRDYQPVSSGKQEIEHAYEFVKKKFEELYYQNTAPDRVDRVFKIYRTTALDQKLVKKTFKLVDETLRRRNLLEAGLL

[2] = target: T1, AtGPA1, Arabidopsis Gα subunit, His-tagged (Arabidopsis thaliana); remark: listed apart in the source

- GAP activity as ΔK per molecule, single turnover GTPase assay (min^−1 pmol^−1) [1]: 0.0378
- rate constant of single turnover GTP hydrolysis by AtGPA1 with 30 nM RGS1box [2]: 0.18 min⁻¹
B1: C-terminal domain of AtRGS1 (residues 284–459), His-tagged (domain or fragment)
chain: KEEFRPVDPNEPLDKLLLNKRFRHSFMEFADSCYAGETLHFFEEVYEHGKIPEDDSIRRIYMARHIMEKFIVAGAEMELNLSHKTRQEILTTQDLTHTDLFKNALNEVMQLIKMNLVRDYWSSIYFIKFKEEESCHEAMHKEGYSFSSPRLSSVQGSDDPFYQEHMSKSSRCSSPG
